Holding throughout (experiment): SPR, antibody captured, C2 as analyte;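 note: biacore at 37 °C, anti-C2 mAbs held by immobilised goat anti-human IgG, C2 alanine or serine mutants injected, double-referenced sensorgrams fitted to a 1:1 kinetic or steady-state model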
One assay deals with T1, human C2 G432A (human, UniProt P06681 21-752).
T1 sequence: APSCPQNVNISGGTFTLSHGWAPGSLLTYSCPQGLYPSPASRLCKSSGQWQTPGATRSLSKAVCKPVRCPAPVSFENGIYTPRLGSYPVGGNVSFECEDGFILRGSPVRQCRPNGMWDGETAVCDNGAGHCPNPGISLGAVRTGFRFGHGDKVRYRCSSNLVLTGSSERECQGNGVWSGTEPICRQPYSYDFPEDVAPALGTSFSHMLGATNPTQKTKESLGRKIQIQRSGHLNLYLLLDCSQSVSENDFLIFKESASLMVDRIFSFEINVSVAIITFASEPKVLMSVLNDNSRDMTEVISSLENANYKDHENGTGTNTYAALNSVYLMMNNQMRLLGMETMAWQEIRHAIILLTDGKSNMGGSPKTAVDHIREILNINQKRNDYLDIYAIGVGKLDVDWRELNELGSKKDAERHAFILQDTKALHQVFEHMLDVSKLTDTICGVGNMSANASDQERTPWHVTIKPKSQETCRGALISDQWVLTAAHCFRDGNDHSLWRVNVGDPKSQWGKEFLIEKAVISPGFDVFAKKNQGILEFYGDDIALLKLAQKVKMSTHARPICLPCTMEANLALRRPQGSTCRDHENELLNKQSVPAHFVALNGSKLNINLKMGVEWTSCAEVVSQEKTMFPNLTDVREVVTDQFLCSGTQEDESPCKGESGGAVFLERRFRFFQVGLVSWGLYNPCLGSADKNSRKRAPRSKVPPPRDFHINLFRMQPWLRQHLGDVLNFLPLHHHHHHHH

In a further assay the target is T2, human C2 M316A (human, UniProt P06681 21-752).
T2 sequence: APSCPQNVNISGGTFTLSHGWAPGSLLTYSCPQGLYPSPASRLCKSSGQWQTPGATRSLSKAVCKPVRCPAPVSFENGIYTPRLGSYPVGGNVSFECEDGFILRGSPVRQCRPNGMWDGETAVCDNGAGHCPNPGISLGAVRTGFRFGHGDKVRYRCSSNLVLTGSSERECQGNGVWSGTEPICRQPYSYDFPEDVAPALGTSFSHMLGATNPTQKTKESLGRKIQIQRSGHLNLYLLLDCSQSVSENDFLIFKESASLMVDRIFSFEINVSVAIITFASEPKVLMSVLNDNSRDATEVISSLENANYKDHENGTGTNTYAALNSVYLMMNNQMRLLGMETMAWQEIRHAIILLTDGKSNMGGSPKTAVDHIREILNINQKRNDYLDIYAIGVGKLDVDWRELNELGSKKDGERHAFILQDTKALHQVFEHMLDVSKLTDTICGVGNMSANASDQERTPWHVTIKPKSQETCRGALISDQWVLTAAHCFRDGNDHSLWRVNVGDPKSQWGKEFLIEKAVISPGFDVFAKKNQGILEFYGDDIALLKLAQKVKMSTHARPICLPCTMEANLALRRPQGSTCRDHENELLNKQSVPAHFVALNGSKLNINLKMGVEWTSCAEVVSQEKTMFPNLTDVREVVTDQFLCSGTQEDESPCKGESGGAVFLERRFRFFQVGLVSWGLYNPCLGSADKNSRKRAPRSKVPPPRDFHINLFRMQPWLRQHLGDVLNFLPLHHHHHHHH

Another assay concerns the target T3, human C2 L279A (human, UniProt P06681 21-752).
T3 sequence: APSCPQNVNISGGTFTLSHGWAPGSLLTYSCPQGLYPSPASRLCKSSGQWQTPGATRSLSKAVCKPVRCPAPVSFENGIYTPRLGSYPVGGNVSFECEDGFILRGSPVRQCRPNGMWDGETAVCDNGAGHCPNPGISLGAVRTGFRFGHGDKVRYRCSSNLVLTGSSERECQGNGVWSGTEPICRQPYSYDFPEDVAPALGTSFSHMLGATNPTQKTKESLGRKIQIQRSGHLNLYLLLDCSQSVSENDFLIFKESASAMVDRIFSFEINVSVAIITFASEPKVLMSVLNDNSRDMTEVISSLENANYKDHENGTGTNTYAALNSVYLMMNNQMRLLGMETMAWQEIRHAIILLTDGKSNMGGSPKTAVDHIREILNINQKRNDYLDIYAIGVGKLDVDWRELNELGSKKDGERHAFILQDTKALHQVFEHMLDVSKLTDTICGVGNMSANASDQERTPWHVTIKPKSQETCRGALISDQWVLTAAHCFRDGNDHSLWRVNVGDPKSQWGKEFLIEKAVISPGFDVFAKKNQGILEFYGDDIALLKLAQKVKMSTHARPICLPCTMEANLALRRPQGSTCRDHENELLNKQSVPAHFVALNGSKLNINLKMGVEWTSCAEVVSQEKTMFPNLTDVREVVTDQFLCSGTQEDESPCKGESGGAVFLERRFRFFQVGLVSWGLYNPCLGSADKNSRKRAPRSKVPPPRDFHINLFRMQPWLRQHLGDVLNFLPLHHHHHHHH

Another assay concerns the target T4, human C2 N424A (human, UniProt P06681 21-752).
T4 sequence: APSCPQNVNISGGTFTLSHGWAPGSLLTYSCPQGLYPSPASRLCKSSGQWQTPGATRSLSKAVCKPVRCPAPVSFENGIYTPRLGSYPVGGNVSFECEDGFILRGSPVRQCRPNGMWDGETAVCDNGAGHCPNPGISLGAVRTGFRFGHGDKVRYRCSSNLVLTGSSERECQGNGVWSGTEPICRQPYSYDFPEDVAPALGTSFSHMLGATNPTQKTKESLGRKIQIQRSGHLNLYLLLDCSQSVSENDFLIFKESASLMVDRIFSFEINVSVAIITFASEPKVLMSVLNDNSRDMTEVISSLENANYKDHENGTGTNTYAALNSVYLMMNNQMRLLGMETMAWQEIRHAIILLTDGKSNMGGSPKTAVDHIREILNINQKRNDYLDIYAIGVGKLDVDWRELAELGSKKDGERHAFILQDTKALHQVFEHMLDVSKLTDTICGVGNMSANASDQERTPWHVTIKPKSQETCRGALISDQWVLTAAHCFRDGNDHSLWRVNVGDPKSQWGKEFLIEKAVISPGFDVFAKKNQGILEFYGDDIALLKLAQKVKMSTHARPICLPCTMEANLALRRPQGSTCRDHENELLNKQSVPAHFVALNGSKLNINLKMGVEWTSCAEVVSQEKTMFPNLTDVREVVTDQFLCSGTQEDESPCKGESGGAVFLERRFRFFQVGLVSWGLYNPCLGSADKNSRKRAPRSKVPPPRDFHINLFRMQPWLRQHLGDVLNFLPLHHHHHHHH

B1: RF16-242 (antibody, human IgG4 S228P, lambda, V domains shown)
VH: EVQLLQSGAEVKKPGESLKISCKGSGYSFTSYWIGWVRQMPGKGLEWMGIIYPGDSDTRYSPSFQGQVTISADKSISTAYLQWSSLKASDTAMYYCARRGHYGDYFDYWGQGTLVTVSS
VL: SYELTQPPSVSVSPGQTARITCSGDALPKKYAYWYHQKSGQAPVLVIYEDRRRPSEIPERFSGSSSGTMATLTITGAQVEDEGVYFCYSRDRAGNQRVFGGGTQLTVLG
notes: pH-dependent anti-C2 antibody from a phage display library
The term Kd denotes the free concentration of one partner at which half of the binding sites on the other are occupied at equilibrium, for simple one-to-one binding. Turning to B1, the Kd in the assay with human C2 G432A stood at 8.8 nM; in the assay with human C2 M316A, 10.1 nM; with human C2 L279A it was 49.2 nM; with human C2 N424A, 5.7 nM.

Source of the values: patent US20220332804A1 (CSL INNOVATION, published 2022).
